Measurements published in patent US20200199244A1 (published 2020).

Assays:
human CD40 = human CD40 (human, UniProt P25942 21-277); assay: cell-based or functional assay
Macaca fascicularis CD40 = biological target: T1, Macaca fascicularis CD40 (Macaca fascicularis (cynomolgus monkey), UniProt P25942 21-277 (human entry)); assay: cell-based or functional assay
T1 chain: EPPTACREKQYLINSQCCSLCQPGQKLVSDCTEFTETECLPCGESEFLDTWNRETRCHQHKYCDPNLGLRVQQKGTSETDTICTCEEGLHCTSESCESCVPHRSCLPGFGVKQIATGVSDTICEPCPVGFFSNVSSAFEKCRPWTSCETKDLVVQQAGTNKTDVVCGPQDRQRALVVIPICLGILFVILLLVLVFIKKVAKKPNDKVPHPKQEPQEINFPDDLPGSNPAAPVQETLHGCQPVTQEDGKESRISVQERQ

[1] = biological target: human CD40 on RAMOS human B cells (human, UniProt P25942 21-277); assay: cell-based or functional assay
[2] = biological target: T2, human CD40 expressed on stably transfected CHO-DG44 cells (human, UniProt P25942 21-277); assay: CHO-CD40 cell RBA, competition with IZ-CD40L
T2 construct: also called CHO-CD40
Protocol: The mixture was incubated in the absence of light for 6 hours.

[3] = biological target: T3, human CD40 (BMS, CY24FEB06-01) (human, UniProt P25942 21-193); assay: ELISA RBA, competition with IZ-CD40L;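 further: Neutravidin-coated 384-well plate, dAb–human CD40 complex bound for 2 h at room temperature, absorbance read at 450 nm after HCl stop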
T3 construct: Soluble reagent of the bead and ELISA RBA; It is detected with an anti-human IgG (Fc) mAb, so it may be a CD40-Ig fusion
Protocol: Clear walled High Bind, 384-well plates (Corning, UK) were coated with 25 μl of 1 μg/ml Neutravidin in 0.2 M carbonate-bicarbonate buffer, pH 9.4 overnight at 4° C. The following day, assay plates were washed with 0.1% (v/v) Tween PBS buffer, blocked with 1% (w/v) BSA in PBS for 1 hour at room temperature and washed again. […] Following washing of the assay plate, the dAb:human CD40 complex was incubated in the assay plate at room temperature for 2 hours with gentle agitation. […] Absorbance signal was measured using a SpectraMax® M5e plate reader (Molecular Devices) at 450 nm following neutralization with 1M HCl solution.

Binder | hIZCD40L-driven Human B Cell Proliferation EC50 (human CD40) | hIZCD40L-driven Cyno B Cell Proliferation EC50 (Macaca fascicularis CD40) | EC50 [2] | other results
BMS3h-56-202 (other) VH: EVQLLESGGGLVQPGGSLRLSCAASGFTFRDYEMWWVRQAPGKGLERVSAINPQGTRTYYADSVKGRFTISRDNSKNTLYLQMNSLRAEDTAVYYCAKLPTYFSDRGQGTLVTVSS |  |  |  | EC50 ICAM1 cell assay [1]: 80 nM
BMS3h-56-206 (other) VH: EVQLLESGGGLVQPGGSLRLSCAASGFTFRDYEMWWVRQAPGKGLERVSAINPQGTRTYYADSVKGRFTISRDNSKNTLYLQMNSLRAEDTAVYHCAKLPMFFEDWGQGTLVTVSN |  |  |  | EC50 ICAM1 cell assay [1]: 5 nM
BMS3h-43 (other) VH: EVQLLESGGGLVQPGGSLRLSCTASGFTFNMYEMSWVRQAPGKGLEWVSGISRRGFTTYYADSVKGRFTISRDNSKNTLYLQMNSLRAEDTAVYYCAKEPITYAMRYARFDYWGQGTLVTVSS | 83 nM | > 7000 nM |  | 
BMS3h-43-3 (other, dAb, single VH) VH: EVQLLESGGGLVQPGGSLRLSCTASGFTFNMYEMSWVRQAPGKGLEWVSGISRRGFTTYYADSVKGRFTISRDNFKNTLYLQMNSLRAEDTAVYYCAKEPITYDMRYARFDYGGQGTLVTVSS |  |  | 320 nM | 
BMS3h-43-5 (other, dAb, single VH) VH: EVQLLESGGGLVQPGGSLRLSCTASGFTFNTYEMSWVRQAPGKGLEWVSGIGRRGFTTYYADSVKGRFTISRDNSKNTLYLQMNSLRAEDTAVYYCAKEPITYDLRYARFDYSGQGTLVTVSS |  |  | 90 nM | 
BMS3h-37 (other) VH: EVQLLESGGGLVQPGGSLRLSCAASGFTFEWYEMQWVRQAPGKGLEWVSAISGDGYRTYYADSVKGRFTISRDNSKNTLYLQMNSLRAEDTAVYYCAKELGYFDYWGQGTLVTVSS | 3400 nM | > 7000 nM |  | 
BMS3h-38 (other) VH: EVQLLESGGGLVQPGGSLRLSCAASGFTFEEEEMIWVRQAPGKGLEWVSAISGSGGSTYYADSVKGRFTISRDNSKNTLYLQMNSLRAEDTAVYYCAKEPFRFDYWGQGTLVTVSS | 2800 nM | > 7000 nM |  | 
BMS3h-37-2 (other) VH: EVQLLESGGGLVQPGGSLRLSCAASGFTFEWYEMQWVRRAPGKGLEWVSAISGDGYRTYYADSVKGRFTISRDNSKNTLYLQMNSLRAEDTAVYYCAKELGYFDYWGRGTLVTVSS | 5 nM | > 7000 nM |  | CHO-hCD40L-driven DC Activation IL-12 EC50 (human CD40): 13 nM; T-B cell MLR EC50 (human CD40): 198 nM
BMS3h-38-2 (other) VH: EVQLLASGGGLVQPGGSLRLSCAASGFTFEEEEMIWVRQAPGKGLEWVSAISGSGGSTYYADSVKGRFTISRDNSKNTLYLQMNSLRAEDTAVYYCGKEPFRYDYWGQGTLVTVSS | 10 nM | > 7000 nM |  | CHO-hCD40L-driven DC Activation IL-12 EC50 (human CD40): 289 nM; CHO-hCD40L-driven Human B Cell Proliferation EC50 (human CD40): 723 nM; T-B cell MLR EC50 (human CD40): 986 nM
BMS3h-38-8 (other, dAb, single VH) VH: EVQLLESGGGLVQPGGSLRLSCAASGFTFEEEEMIWVRQAPGKGLEWISAISGSGGSTYYADSVKGRFTIHRDNSKNTLYLQMNSLRAEDTAVYYCSKEPFRFDYRGLGTLVTVSS |  |  | 2800 nM | 
BMS3h-38-5 (other, dAb, single VH) VH: EVQLLGSGGGLVQPGGSLRLSCAASGFTFEEEEMIWVRQAPGKGLEWVSAISGSGGSTYYADSVKGRFTISRDNSKNTLYLQMNSLRAEDTAVYYCGKEPFRFDYWGQGTLVTVSS |  |  | 1000 nM | 
BMS3h-41-10 (other, dAb, single VH) VH: EVQLLESGVGLVQPGGSLRLSCAASGFTFTEYEMIWVRKAPGKGLEWVSSISGNGANTYYADSVKGRFTISRDNSKNTLYLQMNSLRAEDTAVYYCAKEPLRFDNWGQGTLVTVSS |  |  | 4300 nM | 
BMS3h-41-3 (other, dAb, single VH) VH: EVQLLEPGGGLVQPGGSLRLSCAASGFTFTEYEMIWVRKAPGKGMEWVSSISGNGANTYYADSVKGRFTISRDNSKNMLYLQMNSLRAEDTAVYYCAKEPLRFGYWGQGTLVTVSS |  |  | 200 nM | 
BMS3h-41-3 (other) VH: EVQLLEPGGGLVQPGGSLRLSCAASGFTFTEYEMIWVRKAPGKGMEWVSSISGNGANTYYADSVKGRFTISRDNSKNMLYLQMNSLRAEDTAVYYCAKEPLRFGYWGQGTLVTVSS | 12 nM | > 7000 nM |  | 

More lines, main results first:

hIZCD40L-driven Human B Cell Proliferation EC50 (human CD40) | hIZCD40L-driven Cyno B Cell Proliferation EC50 (Macaca fascicularis CD40) | EC50 [2] | Binder | other results
360 nM | > 7000 nM |  | BMS3h-197 (other) VH: EVQLLESGGGLVQPGGSLRLSCAASGFTFGSAAMDWVRQAPGKGLEWVSSINDMGSNTYYADSVKGRFTISRDNSKNTLYLQMNSLRAEDTAVYYCAKQGGRFDYWGQGTLVTVSS | 
6 nM | > 7000 nM |  | BMS3h-56-5 (other) VH: EVQLLESGGGLVQPGGSLRLSCAASGFTFRDYEMWWVRQAPGKGLERVSAINPQGTRTYYADSVMGRFTISRDNSKNTLYLQMNSLRAEDTAVYYCAKLPFTFDDWGQGTLVTVSS | 
713 nM | > 7000 nM |  | BMS3h-56 (other) VH: EVQLLESGGGLVQPGGSLRLSCAASGFTFRDYEMWWVRQAPGKGLERVSAINPQGTRTYYADSVKGRFTISRDNSKNTLYLQMNSLRAEDTAVYYCAKLPFIFDYWGQGTLVTVSS | 
 |  | 300 nM | BMS3h-193-15 (other, dAb, single VK) VL: DIQMTQSPSSLSASVGDRVTITCRASRTIERRLNWYQQKPGKAPKLLIYLASRLQSGVPSRFSGSGSGTDFTLTISSLQPEDFATYYCHPYESPPLTFGQGTKVEIKR | 
> 7000 nM | > 7000 nM |  | BMS3h-107 (other) VH: EVQLLESGGGLVQPGGSLRLSCAASGFTFSGYDMQWVRQAPGKGLEWVSTISASGVFTYYADSVKGRFTTSRDNSKNTLYLQMNSLRAEDTAVYYCAKYPNRFALNNFDYWGQGTLVTVSS | 
2700 nM | > 7000 nM |  | BMS3h-131 (other) VL: DIQMTQSPSSLSASVGDRVTITCRANSSILWALAWYQQKPGKAPKLLIESSSGLQSGVPSRFSGSGSGTDFTLTISSLQPEDFATYYCVQNAGWPGTFGQGTKVEIKR | 
55 nM | > 7000 nM |  | BMS3h-131-2 (other) VL: DIQMTQSPSSLSASVGDRVTITCRADSSILWALAWYQQKPGKAPKLLIESSSGLQSGVPSRFSGSGSGTDFTLTISSLQPEDFATYYCVQNAVWPGTFGQGTKVEIKR | 
 |  | 70 nM | BMS3h-198-1 (other, dAb, single VH) VH: EVQLLESGGGLVQPGGSLRLSCAASGSTIAGYEMWWVRQAPGKGLERVSAISGSGGSTYYADSVKGRFTISRDDSKNTLYLQMNSLRAEDTAVYYCARDPYSFDYWGQGTLVTVSS | EC50 [3]: 12 nM
 |  | 115 nM | BMS3h-198-2 (other, dAb, single VH) VH: EVQPLESGGGLVQPGGSLRLSCAASGFTFAGYEMWWVRQAPGKGLERISAISGSGGSTYYADSVKGRFTISRDDSKNTLYLQMNSLRAEDTAVYYCARDPYSFDYWGQGTLVTVSS | 
 |  | 330 nM | BMS3h-198-3 (other, dAb, single VH) VH: EVQLLESGGGSVQPGGSLRLSCAATGSTFAGYEMWWVRQAPGKGLERVSAISGSGGSTYYADSVKGRFTISRDDSKNTLYLQMNSLRAEDTAVYYCARDPYSYDYWGQGTLVSVSS | 
437 nM | > 7000 nM |  | BMS3h-106 (other) VH: EVQLLESGGGLVQPGGSLRLSCAASGFTFSTYHMQWVRQAPGKGLEWVSMIDADGLGTYYADSVKGRFTISRDNSKNTLYLQMNSLRAEDTAVYYCAKPGPQFGQFDYWGQGTLVTVSS | 
